Source: paper PMC7271239, “Structural and catalytic analysis of two diverse uridine phosphorylases in Phytophthora capsici” (Scientific Reports, 2020)

T1: PcUP1 (Phytophthora capsici, UniProt A0A410UCT3)
T1 construct: gene up; homodimer, active site at the dimer interface (His19 and Arg59 from the neighbouring monomer)
T1 sequence (A0A410UCT3 1-296): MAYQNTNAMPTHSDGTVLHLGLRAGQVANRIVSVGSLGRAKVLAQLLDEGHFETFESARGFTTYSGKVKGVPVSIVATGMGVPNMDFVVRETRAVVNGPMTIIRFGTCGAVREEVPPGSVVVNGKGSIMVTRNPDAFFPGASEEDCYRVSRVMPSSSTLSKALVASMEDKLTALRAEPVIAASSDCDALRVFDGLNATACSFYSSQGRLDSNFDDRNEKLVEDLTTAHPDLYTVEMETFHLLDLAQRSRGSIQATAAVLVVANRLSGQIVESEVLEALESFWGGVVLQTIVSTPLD

B1: PcUP2 (Phytophthora capsici) (protein)
chain: MAPNMDAVADATAQVHVRNSHILEMHSDVLFHIGLTCSQEERQQVANTFGDVKFFITGGSAERMTHFAQSVAKELGITTPYGYQLAPIGSTSRYTLFKVGPVLVANHGIGMPSISILLHEVTKLLEYAGAHGATYIRMGTSGGIGVEPGTVVITSEGVNNKLESVDEVAVLGSTVRRPSICSPEVREEIITAAKEVGLPYAVGKTLSCNDFYEGQGRLDGAICEYTLEDKMAFLQKLADAGVRNIEMEARLMAGFCHKLNIPVAVVCVTLLNRLNGDQVLSSHETLQDFERRPGAVLLHYIKSKVNASA
B2: PcUP1 (Phytophthora capsici) (protein)
chain: T1 sequence (A0A410UCT3 1-296)
notes: homodimer, active site at the dimer interface (His19 and Arg59 from the neighbouring monomer)

Tests used:
PcUP1 = molecular target: T1, PcUP1; assay: X-ray crystal structure, […] Å; assay type: binding; settings: with 2'-deoxyuridine (also with thymidine, 6K8P); phosphate site; crystals grown in phosphate
[1] = substrate: O=c1ccn([C@@H]2O[C@H](CO)[C@@H](O)[C@H]2O)c(=O)[nH]1; assay: HPLC of uracil formed, Michaelis-Menten fit; assay type: biochemical, Phytophthora capsici; settings: phosphorolysis, uridine 0.25-5 mM, 10 mM Na2HPO4, pH 7.5, 25 °C, kcat assumes Et = 2

| Molecule | X-ray crystal structure, 2.1 Å (PcUP1) | Km [1] | kcat [1] |
| --- | --- | --- | --- |
| O=P(O)(O)O [phosphate] | Arg59 is an important residue in the phosphate-bonding pocket, forming two hydrogen bonds | – | – |
| B1 | – | 7.55 ± 0.6 mM | 1188 ± 90 s⁻¹ |
| B2 | – | 6.96 ± 1.52 mM | 982 ± 152 s⁻¹ |
